Patent publication US20190111080A1 (PRECIGEN, published 2019)

B1: EGFRvIII CAR (MR1-1 scFv · CD8alpha 4x hinge&TM · 4-1BB · CD3ζ) (receptor)
chain: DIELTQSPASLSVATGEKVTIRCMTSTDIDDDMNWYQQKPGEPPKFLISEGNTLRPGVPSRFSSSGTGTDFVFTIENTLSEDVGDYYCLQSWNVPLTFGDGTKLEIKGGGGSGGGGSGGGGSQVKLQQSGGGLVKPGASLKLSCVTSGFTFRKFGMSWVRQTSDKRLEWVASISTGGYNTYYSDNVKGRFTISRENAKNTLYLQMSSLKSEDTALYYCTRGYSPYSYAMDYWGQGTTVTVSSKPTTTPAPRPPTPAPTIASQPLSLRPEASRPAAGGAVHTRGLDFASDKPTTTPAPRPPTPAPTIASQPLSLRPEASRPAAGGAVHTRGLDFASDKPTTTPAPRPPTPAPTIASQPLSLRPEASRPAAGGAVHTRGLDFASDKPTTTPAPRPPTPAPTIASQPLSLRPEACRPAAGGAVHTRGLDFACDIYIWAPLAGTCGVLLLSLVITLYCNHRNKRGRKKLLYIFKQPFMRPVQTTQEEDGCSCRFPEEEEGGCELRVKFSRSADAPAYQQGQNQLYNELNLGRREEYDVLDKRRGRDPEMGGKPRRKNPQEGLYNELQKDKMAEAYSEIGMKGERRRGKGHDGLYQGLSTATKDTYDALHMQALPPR
notes: Expressed on human T cells; also called MR1-1 CAR CD8-4×
B2: EGFRvIII CAR (MR1-1 scFv · CD8alpha 3x hinge&TM · 4-1BB · CD3ζ) (receptor)
chain: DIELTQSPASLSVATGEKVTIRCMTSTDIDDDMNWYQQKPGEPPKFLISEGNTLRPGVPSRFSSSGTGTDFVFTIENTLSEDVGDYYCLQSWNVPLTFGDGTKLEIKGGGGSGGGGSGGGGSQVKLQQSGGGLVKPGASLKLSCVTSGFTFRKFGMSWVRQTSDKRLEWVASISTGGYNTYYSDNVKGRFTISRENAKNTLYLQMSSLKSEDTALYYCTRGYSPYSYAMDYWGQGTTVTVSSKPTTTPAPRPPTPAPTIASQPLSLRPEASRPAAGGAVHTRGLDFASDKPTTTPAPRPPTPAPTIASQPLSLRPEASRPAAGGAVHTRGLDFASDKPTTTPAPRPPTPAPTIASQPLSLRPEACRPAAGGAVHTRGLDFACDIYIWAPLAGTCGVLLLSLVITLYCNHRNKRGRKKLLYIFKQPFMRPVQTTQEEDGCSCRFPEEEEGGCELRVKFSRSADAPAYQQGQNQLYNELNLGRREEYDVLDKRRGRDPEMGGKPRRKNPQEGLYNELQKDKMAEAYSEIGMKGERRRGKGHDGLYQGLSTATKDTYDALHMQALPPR
notes: Expressed on human T cells; also called MR1-1 CAR CD8-3×

Target: T1, recombinant EGFRvIII/Fc protein (UniProt P00533 25-645)
T1 construct: Staining reagent for flow cytometry; not shown: Fc part not described
Test: flow cytometry, CAR T cells stained with recombinant EGFRvIII/Fc, day 1
Procedure: Briefly, EGFRvIII-specific CAR vectors were introduced into via electroporation, using a Sleeping Beauty-based transposon system to mediate genomic integration of the transposons. On day 0, PBMC were mixed with CAR transposon and SB transposase and electroporated. The following day (day1) cells count and viability were measured followed by flow cytometry to quantify CAR expression. CAR-T cells were stimulated by co-culture with either γ-irradiated) or mitomycin C treated AaPCs. The AaPC cells used were K562 cell line expressing EGFRvIII antigen. EGFRvIII-CAR-T cells were expanded ex vivo by once weekly stimulation with the AaPCs. Cultures were maintained in media supplemented with IL-2 (and/or IL-21. EGFRvIII-specific CAR expression was measured using recombinant EGFRvIII/Fc protein staining as detected by multi-parameter flow cytometry.

Binder	binding result
B1	binds
B2	binds
